The text below walks through data of PMC12591035, “Bni5 regulates and coordinates septin architecture and myosin-II functions at the cell division site” (The Journal of Cell Biology, 2025).

What all share (details): both partners purified
Experiment [1] concerns the target T1, 5-septin complexes/filaments (a mixture of Cdc11-Cdc12[His6]-Cdc3-Cdc10-Cdc10-Cdc3-Cdc12[His6]-Cdc11 and … (S. cerevisiae, UniProt P32458 1-415; Q07657 1-551; P32468 1-407; P32457 1-520; P25342 1-322).
T1 construct: Cdc11, S. cerevisiae septin, terminal subunit of the Cdc11-capped octamers; Shs1, S. cerevisiae septin, terminal subunit of the Shs1-capped octamers; Cdc12, S. cerevisiae septin; Cdc3, S. cerevisiae septin; Cdc10, S. cerevisiae septin, core subunit; A mixture of two kinds of octamer, each capped by two copies of either Cdc11 or Shs1; polymerised into filaments; also called septin filaments made …
Nature of the experiment: co-sedimentation; 1.5 μg eluted GST fusion with 1.5 μg concentrated 4-septin or 5-septin complexes/filaments; 50 mM NaCl, 2 mM MgCl2, 15 mM imidazole, 12% glycerol, 50 mM Tris-HCl pH 7.5; 1 h at room temperature; 100,000 x g for 1 h at 4°C; pellet on Coomassie gel and anti-GST blot.

Experiment [2] addresses T2, 4-septin complexes/filaments (Cdc11-Cdc12[His6]-Cdc3-Cdc10-Cdc10-Cdc3-Cdc12[His6]-Cdc11) (S. cerevisiae, UniProt P32458 1-415; P32468 1-407; P32457 1-520; P25342 1-322).
T2 construct: Cdc11, S. cerevisiae septin, terminal subunit of the octamer; Cdc12, S. cerevisiae septin; Cdc3, S. cerevisiae septin; Cdc10, S. cerevisiae septin, core subunit; Octamers polymerised into filaments; copies are those of one octamer; The plasmids are from Versele et al., 2004; also called septin filaments made of Cdc11-capped octamers (four septins); four-septin complexes; source: E. coli …
The description is as above.

The target of another experiment is T3, His-SUMO-Elm1(421-640) (S. cerevisiae, UniProt P32801 421-640).
T3 construct: Elm1 kinase, S. cerevisiae, residues 421-640 (C-terminal non-kinase domain); Cloned into pET-His6-Sumo-TEV-LIC (Addgene #29659); also called His6-Sumo-Elm1-C; pET-His6-Sumo-Elm1(421-640); source: E. coli Rosetta DE3, purified (His-tag resin, eluted with imidazole); not shown: His6, N-terminal, kept; SUMO, N-terminal, kept
T3 sequence (looked up): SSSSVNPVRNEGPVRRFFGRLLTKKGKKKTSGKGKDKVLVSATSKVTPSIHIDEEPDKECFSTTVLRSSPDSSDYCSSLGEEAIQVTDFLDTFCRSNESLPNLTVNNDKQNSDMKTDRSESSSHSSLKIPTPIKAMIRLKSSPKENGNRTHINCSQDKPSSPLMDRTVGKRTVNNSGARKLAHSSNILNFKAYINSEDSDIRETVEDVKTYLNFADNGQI
Nature of the experiment: pull-down; 3.5 μg GST fusion on glutathione resin with 3.5 μg His6-Sumo-Elm1-C or MBP-Myo1-mTD1; 20 mM MOPS pH 7.0, 1 mM EGTA, 150 mM NaCl, 1 mM DTT, 0.1% NP-40; 1 h; five washes; Coomassie gel and anti-6xHis or anti-MBP blot.

T2 sequence (P32458 whole entry, chain 1 of 4): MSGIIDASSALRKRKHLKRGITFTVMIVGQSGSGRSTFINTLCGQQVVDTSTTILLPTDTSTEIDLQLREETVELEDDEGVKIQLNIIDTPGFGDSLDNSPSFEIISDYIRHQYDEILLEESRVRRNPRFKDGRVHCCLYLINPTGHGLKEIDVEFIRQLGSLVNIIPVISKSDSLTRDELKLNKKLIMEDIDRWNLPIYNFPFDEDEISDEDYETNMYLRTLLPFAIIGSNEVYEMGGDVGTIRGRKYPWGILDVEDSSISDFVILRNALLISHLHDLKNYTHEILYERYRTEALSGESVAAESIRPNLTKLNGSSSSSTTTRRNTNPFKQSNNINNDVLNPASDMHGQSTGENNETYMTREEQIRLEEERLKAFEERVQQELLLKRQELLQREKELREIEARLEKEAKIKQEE
T2 sequence (P32468 whole entry, chain 2 of 4): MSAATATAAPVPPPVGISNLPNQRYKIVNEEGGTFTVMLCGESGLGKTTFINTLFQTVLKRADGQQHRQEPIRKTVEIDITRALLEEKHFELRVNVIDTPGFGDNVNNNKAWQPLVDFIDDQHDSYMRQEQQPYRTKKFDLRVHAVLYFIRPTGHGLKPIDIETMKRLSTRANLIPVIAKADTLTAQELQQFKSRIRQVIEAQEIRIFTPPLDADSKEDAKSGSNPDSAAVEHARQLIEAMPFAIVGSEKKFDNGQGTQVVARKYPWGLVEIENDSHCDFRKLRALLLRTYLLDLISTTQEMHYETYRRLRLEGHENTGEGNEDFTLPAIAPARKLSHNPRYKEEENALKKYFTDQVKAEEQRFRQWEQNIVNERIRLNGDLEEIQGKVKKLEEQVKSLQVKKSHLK
T2 sequence (P32457 whole entry, chain 3 of 4): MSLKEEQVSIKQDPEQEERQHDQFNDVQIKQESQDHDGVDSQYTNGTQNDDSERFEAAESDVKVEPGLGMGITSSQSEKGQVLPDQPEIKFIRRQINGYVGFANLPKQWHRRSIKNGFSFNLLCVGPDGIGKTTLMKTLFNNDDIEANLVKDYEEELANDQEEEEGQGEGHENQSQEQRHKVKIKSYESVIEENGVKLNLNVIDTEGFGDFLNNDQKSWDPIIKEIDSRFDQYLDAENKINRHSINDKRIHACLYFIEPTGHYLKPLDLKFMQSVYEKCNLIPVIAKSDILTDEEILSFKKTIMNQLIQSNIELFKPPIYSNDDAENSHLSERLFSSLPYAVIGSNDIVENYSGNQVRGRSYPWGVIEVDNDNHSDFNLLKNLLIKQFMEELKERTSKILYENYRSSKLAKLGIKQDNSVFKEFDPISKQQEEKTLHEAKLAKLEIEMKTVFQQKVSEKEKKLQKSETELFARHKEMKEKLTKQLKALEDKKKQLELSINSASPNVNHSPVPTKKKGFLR
T2 sequence (P25342 whole entry, chain 4 of 4): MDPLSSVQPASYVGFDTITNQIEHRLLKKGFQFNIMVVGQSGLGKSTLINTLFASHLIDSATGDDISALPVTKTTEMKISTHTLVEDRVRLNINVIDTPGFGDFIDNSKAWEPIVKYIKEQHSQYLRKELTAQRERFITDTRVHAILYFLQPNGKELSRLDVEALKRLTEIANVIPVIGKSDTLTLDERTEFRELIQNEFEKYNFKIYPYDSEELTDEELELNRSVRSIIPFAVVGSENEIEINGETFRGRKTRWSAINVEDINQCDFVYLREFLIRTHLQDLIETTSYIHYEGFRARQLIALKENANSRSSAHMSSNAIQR

B1: GST-Bni5-Ext-HR2-HR3 (GST-Bni5(306-448)) (domain or fragment, S. cerevisiae, UniProt P53890 306-448, looked up)
chain: QKKMANFETRRPTNPFRVISVSSNSNSRNGSRKSSLNKYDSPVSSPITSASELGSIAKLEKRHDYLSMKCIKLQKEIDYLNKMNAQGSLSMEDGKRLHRAVVKLQEYLDKKTKEKYEVGVLLSRHLRKQIDRGENGQFWIGTK
notes: Bni5, S. cerevisiae, residues 306-448 (Ext, HR2 and HR3); also called GST-Ext-HR2-HR3; pGEX-4T-1-Bni5(306-448); source: E. coli Rosetta DE3, purified (Glutathione Sepharose 4B); kept on the resin for pull-downs, eluted with glutathione for the septin filament assay; not shown: GST, N-terminal, kept
Turning to B1, the binding result (in experiment [1]; in experiment [2]; in the experiment with His-SUMO-Elm1(421-640)) was “binds” each time.

B2: GST-Bni5-Ext-HR2 (GST-Bni5(306-393)) (domain or fragment, S. cerevisiae, UniProt P53890 306-393, looked up)
chain: QKKMANFETRRPTNPFRVISVSSNSNSRNGSRKSSLNKYDSPVSSPITSASELGSIAKLEKRHDYLSMKCIKLQKEIDYLNKMNAQGS
notes: Bni5, S. cerevisiae, residues 306-393 (Ext plus helical region HR2); also called GST-Ext-HR2; pGEX-4T-1-Bni5(306-393); source: E. coli Rosetta DE3, purified (Glutathione Sepharose 4B); kept on the resin for pull-downs, eluted with glutathione for the septin filament assay; not shown: GST, N-terminal, kept
As to B2, the binding result in experiment [1] and in experiment [2] was “binds” each time.
